Source: patent US10344330B2, “Glatiramer acetate response biomarker mRNA potency assay” (Mylan Inc., priority 2013, dated 2019)

B1: MBP: myelin basic protein, a negative control (protein, UniProt P02686 1-304, looked up)
Myelin basic protein: MGNHAGKRELNAEKASTNSETNRGESEKKRNLGELSRTTSEDNEVFGEADANQNNGTSSQDTAVTDSKRTADPKNAWQDAHPADPGSRPHLIRLFSRDAPGREDNTFKDRPSESDELQTIQEDSAATSESLDVMASQKRPSQRHGSKYLATASTMDHARHGFLPRHRDTGILDSIGRFFGGDRGAPKRGSGKDSHHPARTAHYGSLPQKSHGRTQDENPVVHFFKNIVTPRTPPPSQGKGRGLSLSRFSWGAEGQRPGFGYGGRASDYKSAHKGFKGVDAQGTLSKIFKLGGRDSRSGSPMARR

How the values were obtained:
[1] = tested on: mouse IL-10 mRNA in primary LN cells; experiment: Validation: mouse IL-10 mRNA by real-time PCR in LN cells of GA-immunized SJL/J mice (Example IV); format: cell-based; conditions: for IL-10 mRNA Fold Change: normalized to GAPDH
Description: Three experiments were conducted using one batch of GA (Mylan GMA). The primary LN cells were stimulated by incubation with 6 concentrations (0.3 to 20 μg/mL) of the GA for 6 hours at 37° C. Total RNA was isolated from LN cells stimulated with GA or controls. cDNA was synthesized from the RNA and the mRNA levels of seven mouse cytokines, IL-2, IL-4, IL-5, IL-10, IL-13, interferon (IFN)-γ and tumor necrosis factor (TNF)-α, were quantitatively measured by a real-time PCR method.
Female SJL/J mice at 8-9 weeks of age were immunized by injection into four footpads using a 1 mL syringe with a 27-G, ½-inch needle. Each mouse received a total injection volume of 0.1 mL of GMA emulsified in CFA (about 10 μL into each of the front footpads and 40 μL into each of the hind footpads). Animals were immunized on Day 0. After injection, animals were placed back in their cages and housed ≤6 animals per cage.
Immunized animals were sacrificed by cervical dislocation on Day 10 following immunization. […] After centrifugation at about 200×g for 10 minutes at 4° C., the cell pellet was re-suspended in 40 mL of DCCM-1 medium for cell counting. A Trypan blue exclusion method was used to determine the cell density of viable cells in the suspension. After cell counting, the LN cells were suspended in enriched DCCM-1 medium at density of 7.5×10^6 cells/mL. LN cells (0.12 mL) were plated into each well of 96-well tissue culture plates.
Dilutions of GA (Mylan GMA) were prepared using enriched DCCM-1 medium as the diluent. GA dilutions (0.12 mL) were added in the assigned wells of 96-well tissue culture plates. The same volume of LN cells (0.12 mL) isolated from immunized animals was added to the assigned wells. A positive control and a negative control were always performed in the same assay by treating LN cells with 2.5 μg/mL ConA and 10 μg/mL MBP, respectively. The LN cells with mock stimulation protocols (enriched DCCM-1 medium) were used to monitor the background mRNA level of a cytokine. The plates were incubated at 37° C. in a humidified 5% CO2 incubator for 6 hr.
At the end of incubation time, culture medium from stimulated cells was removed by aspiration and the cells were lysed using Qiagen or Promega lysis buffer. The lysate was transferred to an RNeasy Mini column (Qiagen) or wells of the SV 96 Binding Plate (Promega) for RNA isolation and cDNA synthesis. All tested samples were run in triplicate.
The SV 96 Total RNA Isolation System (Promega; Cat. No. Z3505) was used for total RNA isolation. Assay procedures were carried out according to each manufacturer's protocol. RNA samples were stored at −70° C. until use. […] The assay procedure was carried out according to the manufacturer's protocol.
The plate was centrifuged at 2000 rpm for 2 minutes at 4° C. to spin down the contents and eliminate air bubbles. Samples were prepared and run in a 96-well plate using a Life Technologies Real-Time PCR system (previously Applied Biosystems; Model No. 7500) according to the manufacturer's recommendation. The mix for the reference gene was prepared in the same way using the reference gene primer.
A relative quantitation method was used to analyze changes in mIL-2, mIL-4, mIL-5, mIL-10, mIL-13, mIFN-γ and TNF-α expression in GA treated samples relative to the untreated control (Enriched DCCM-1 treated) samples using the following program:
Levels of mouse cytokine amplicons were normalized to an internal probe level (GAPDH) from the same samples. The following equations were used to calculate the relative increase in response to GA stimulation compared to the control sample (Enriched DCCM1 sample): […]

[2] = tested on: KC (CXCL1) secreted by LN cells; experiment: KC (CXCL1) secretion by GA-stimulated LN cells, MSD 9-plex ELISA (Example II); format: cell-based, mouse; conditions: 21 hr
Description: (§1) Animals at 8 weeks of age were immunized by injection into four footpads using a 1 mL syringe with a 27-G, 1⁄2-inch needle. […] Ten days post-immunization, immunized animals were sacrificed via cervical dislocation. […] The LN cells were isolated by pressing the LN with the plunger end of a sterile syringe. […] Trypan blue exclusion method was used to determine the cell density of viable cells in the suspension. […] Cat. […] LN cells were plated into a 24-well tissue culture plate for drug stimulation. […] Cell debris was removed by centrifugation at ca. 200×g for 10 minutes at 4° C. Cytokines secreted by treated cells were determined on the day of collection by ELISA using mouse TH 1/TH 2 9-Plex Tissue Culture Kit (Meso Scale Discovery; Cat No. […]-2, Lot #: K0032839) which detects Th1 cytokines (IFN-γ, IL-2, IL-12, IL-1β, TNF-α, CXCL1) and Th2 cytokines (IL-4, IL-5 and IL-10). For IFN-γ, culture media also were assayed at 45 hours using mouse IFN-γ Tissue Culture Kit (Meso Scale Discovery; Cat No. […] For the positive control, 0.5 mL of LN cells (5×10^6 cells/well) were treated with 0.5 mL of ConA (5 μg/mL). For the negative control, 0.5 mL of LN cells (5×10^6 cells/well) were treated with 0.5 mL of MBP (20 μg/mL). The LN cells with mock stimulation (enriched DCCM1 medium) were used to monitor the background level of a cytokine. For the cytokine assays, calibration standards or samples were incubated in the MULTI-SPOT or the SINGLE-SPOT plate and each cytokine bound to its corresponding capture antibody. All test samples were run in duplicate. The amount of each cytokine on its distinct spot was quantified using a cytokine-specific detection antibody labeled with MSD SULFO-TAGTM reagent. Electrochemiluminescent signals from immobilized SULFO-TAGTM-labeled complexes on each spot from each well were captured by the MSD SECTOR Imager 6000, which produces a signal directly proportional to the amount of captured cytokine in a test sample. The levels of cytokines in test samples were derived by interpolation from calibration curves with calibration standards of known concentrations using reagents provided with the MSD kits. Kits were used according to the manufacturer's protocols. […] Data are expressed as a response ratio of cytokine concentration in treated cell medium to control DCCM1 medium.

[3] = tested on: IL-1b secreted by LN cells; experiment: IL-1b secretion by GA-stimulated LN cells, MSD 9-plex ELISA (Example II); format: cell-based, mouse; conditions: 21 hr
Description: as §1

[4] = tested on: IL-2 secreted by LN cells; experiment: IL-2 secretion by GA-stimulated LN cells, MSD 9-plex ELISA (Example II); format: cell-based, mouse; conditions: 21 hr
Description: as §1

[5] = BALB/cByJ, immunized GA Intraplantar
[6] = BALB/cByJ, immunized Mannitol Intraplantar
[7] = C57BL10J, immunized Mannitol Intraplantar
[8] = CD-1, immunized GA Intraplantar
[9] = CD-1, immunized Mannitol Intraplantar
[10] = C57BL10J, immunized GA Intraplantar

| Molecule | KC secretion response ratio (treated cell medium to control DCCM1 medium) [2, 5] | KC secretion response ratio (treated cell medium to control DCCM1 medium) [2, 6] | KC secretion response ratio (treated cell medium to control DCCM1 medium) [2, 7] | KC secretion response ratio (treated cell medium to control DCCM1 medium) [2, 8] | KC secretion response ratio (treated cell medium to control DCCM1 medium) [2, 9] | IL-1b secretion response ratio (treated cell medium to control DCCM1 medium) [3, 6] | IL-1b secretion response ratio (treated cell medium to control DCCM1 medium) [3, 10] | IL-1b secretion response ratio (treated cell medium to control DCCM1 medium) [3, 7] | IL-1b secretion response ratio (treated cell medium to control DCCM1 medium) [3, 8] | IL-1b secretion response ratio (treated cell medium to control DCCM1 medium) [3, 9] | IL-2 secretion response ratio (treated cell medium to control DCCM1 medium) [4, 5] | IL-2 secretion response ratio (treated cell medium to control DCCM1 medium) [4, 6] | IL-2 secretion response ratio (treated cell medium to control DCCM1 medium) [4, 7] | IL-2 secretion response ratio (treated cell medium to control DCCM1 medium) [4, 8] | IL-2 secretion response ratio (treated cell medium to control DCCM1 medium) [4, 9] | other results |
| --- | --- | --- | --- | --- | --- | --- | --- | --- | --- | --- | --- | --- | --- | --- | --- | --- |
| Concanavalin A [ConA, reference compound] | 1.52 | 1.00 | 1.34 | 1.56 | 2.55 | 7.83 | 2.21 | 1.40 | 8.50 | 3.37 | 229.32 | 281.66 | 28.71 | 85.01 | 68.22 | IL-10 mRNA Fold Change ([1]; Experiment 1, 2.5 μg/mL): 1.2 fold; IL-10 mRNA Fold Change ([1]; Experiment 2, 2.5 μg/mL): 0.5 fold; IL-10 mRNA Fold Change ([1]; Experiment 3, 2.5 μg/mL): 1.6 fold |
| B1 | 1.04 | 0.96 | 1.12 | 1.05 | 1.09 | 0.87 | 0.99 | 0.92 | 1.37 | 1.20 | 0.97 | 0.97 | 0.98 | 0.98 | 1.28 | IL-10 mRNA Fold Change ([1]; Experiment 1, 10 μg/mL): 1.1 fold; IL-10 mRNA Fold Change ([1]; Experiment 2, 10 μg/mL): 0.7 fold; IL-10 mRNA Fold Change ([1]; Experiment 3, 10 μg/mL): 1.0 fold; IL-10 mRNA expression level in response to MBP treatment ([1]; SJL/J, MBP 10 μg/mL, all PCR runs): ≤ 2 fold |
